Assays:
[1] = target: T1, RSV F protein of subtype A strain A2, on virus (respiratory syncytial virus subtype A …, UniProt P03420 26-574); experiment: cell-based or functional assay
[2] = target: RSV F protein of subtype B strain 18537, on virus (respiratory syncytial virus subtype B …, UniProt P13843 26-574); experiment: cell-based or functional assay
[3] = target: T1, RSV F protein of subtype A strain A2, …; experiment: cell-based or functional assay; remark: listed apart in the source
[4] = target: HMPV F protein (NL/1/00, A1 sublineage), on virus (human metapneumovirus); experiment: cell-based or functional assay
[5] = target: T2, postfusion RSV F ectodomain (F ΔFP), subtype A (respiratory syncytial virus subtype A, UniProt P03420 26-109; P03420 147-524); experiment: BLI, IgG on sensor
T2 construct: extracellular domain; also called Postfusion subtype A

[6] = target: T3, prefusion-stabilized RSV F ectodomain (DS-Cav1), subtype B (respiratory syncytial virus subtype B); experiment: BLI, IgG on sensor
T3 construct: extracellular domain; also called Prefusion subtype B

[7] = target: T4, postfusion RSV F ectodomain, subtype B (respiratory syncytial virus subtype B); experiment: BLI, IgG on sensor
T4 construct: extracellular domain; also called Postfusion subtype B

Binder	Neut IC50 (ug/ml) subtype A [1] [µg/mL]	Neut IC50 (ug/ml) subtype B [2] [µg/mL]	RSV-A2 IC50 [3] [µg/mL]	HMPV-A1 IC50 [4] [µg/mL]	Kd [5] [nM]	Kd [6] [nM]	Kd [7] [nM]
ADI-15647 (antibody, V domains shown) VH: QVQLVQSGAEVKKPGSSVRVSCEASGGTFSTYAISWVRQAPGLGLEWMGGIHPISGTANYAQSFQDRLTITVDKSTSTAYMDLSSLRSEDTAIYYCARVGLGRTWIYDTMGYLDYWGQGTLVTVSS VL: EIVLTQSPATLSLSPGERVTLSCRASQSVNDYLAWYQQKPGQAPRLLIYDASNRATGIPARFSGSGSGTDFTLTISSLEPEDFAVYYCQHRTNWPSLTFGGGTKVEIK	> 10	> 10	> 25	20.3			
ADI-15657 (antibody, V domains shown) VH: QVQLVQSGTEVKKPGSSVKVSCKASGGTFSSYAISWVRQAPGQGLEWMGGIHPTSGPANYAQKFQDRVTITVDKSTSTVYMDLSSLRSEDTAVYYCARVGVGRTWIYDTMGYLDFWGQGTLVTVSS VL: EIVMTQSPATLSLSPGERATLSCRASQSVSDYLAWYQQKPGQAPRLLIYDASNRATGIPARFSGSGSGTDFTLTITSLEPEDFAVYYCQHRSDWPSLTFGGGTKLEIK	> 10	> 10	> 25	11.9			
ADI-15665 (antibody, V domains shown) VH: QVQLVQSGPEVKRPGSSVKVSCKASGDTFNNYAISWVRQAPGQGLEWMGGIHPTTATPNYAQKFQGRVVISADKSTSTAYLDLSRLRSEDTAMYYCARVGVGRTWVYDIMGYLDYWGQGTLVTVSS VL: EIVLTQSPATLSLSPGERATLSCRASQSVSDYLAWYQQRPGQAPRLLIYDASTRATGIPDRFSGGGSGTDFTLTISSLEPEDFAVYYCQHRNNWPSLTFGGGTKVEIK	12.7	6.25	12.7	13.5			
ADI-15600 (antibody, V domains shown, IgG; also called Antibody Number 166) VH: EVQLVESGGGLIQPGGSLRLSCAVSGFSVSSNYISWVRQPPGKGLEWVSVSYSSGVTDYADSVKGRFTTSRDNSKNTLYLQMNSLRGEDTAVYYCARELVPNFYESHGYFSVWGQGTLVTVSS VL: DIVMTQSPGTLSLSPGERATLSCRASQRVDSSYLAWYQQKPGQAPRLLIYGGSSRATGIPDRFSGSGSGTDFTLTISRLEPEDFALYYCQQYGFSQTFGQGTKVEIK	1.31	0.958			0.162	1.42	0.148
ADI-15611 (antibody, V domains shown, IgG) VH: QVQLVESGAEVKKPGSSVKVSCKASGGTFGRDSISWVRQAPGQGLEWMGGINPIFHTSHYAQKFQGRVTITADESTSTAYMELGNLRSEDTAMYYCARVPPPRGHCESTSCLWGTYFAFWGQGTLVTVSS VL: ETTLTQSPATLSLSPGERATLSCRASQRVRSYLAWYQQKPGQAPRLLIYDASIRATGIPARFSGSGSGADFTLTISSLEPEDFAVYYCQLRDYWPPTWTFGQGTKVEIK	0.15	0.432			0.626	4.34	0.609
ADI-15599 (antibody, V domains shown, IgG; also called Antibody Number 165) VH: EVQLLESGGGLVQPGRSLRLSCSGSGFTFGDYALSWVRQAPGKGLEWVGFIRSKAYGGTTEYAASVKGRFTISRDDSKSIAYLQMNSLKTEDTAVYYCTMAVVVPGATDAFDIWGQGTMVTVSS VL: NFMLTQPHSVSESPGKTVTISCTRSSGSIASDYVQWFQQRPGSSPATVIYQDNQRPSGVPDRFSGSIDTSSNSASLTISGLKTEDEADYYCHSYDSSNPWVFGGGTKLTVL	0.11	0.378			1.23	0.246	0.652
ADI-15605 (antibody, V domains shown, IgG) VH: QVQLVQSGPEVKKPGESLKISCKGSGYTFTTYWIGWVRQRPGKGLEWMGIIHPGDSDTRYSPSLQGQVTISVDKSINTAYLQWRSLKASDTGMYYCARFEYGDFGNDFWGQGTLVTVSS VL: NFMLTQPHSVSESPGKTVTISCSRSSGSIANNYVQWYQQRPGSSPTTVIYEDNQRPSGVPDRFSGSIDSSSNSASLTISGLKTEDEADYYCQSYDSSNHRVFGGGTKLTVL	> 10	> 10			0.163	3.49	0.171
ADI-15614 (antibody, V domains shown, IgG) VH: EVQLLESGGGLVKPGGSLRLSCAASGFTISGYNMFWVRQPPGKGLEWVSSITAGSSYLNYADSVKGRFIVSRDNAKNSLYLQMNSLRAEDTAVYFCARAPLLPAMMDLWGQGTTVTVSS VL: QSVLTQPPSVSGAPGQRVTISCTGSSSNIGAGYDVHWYQQLPGTAPKLLIYTNNNRPSGVPDRFSGSKSGTSASLAITGLQAEDEADYYCQSYDRSLNGYVFGTGTKLTVL	0.027	0.059	0.03	0.22		0.466	
ADI-15556 (antibody, V domains shown, IgG) VH: QVQLVQSGAEVKKPGSSVKVSCKASGGNVNIYGISWVRQAPGQGLEWMGGIIPIYDTTKYAQKFQDRVTITADKSTSTAYMELSSLRSEDTAVYFCARDLDYDILTGYSVNYYYYGMDVWGQGTTVTVSS VL: QSVLTQPPSVSGAPGQRVTISCTGSSSNIGAGYDVHWYQQLPGTAPKLLIYGNINRPSGVPDRFSGSKSGTSASLAITGLQAEDEADYYCQSCDSSLSGWVFGGGTKLTIL	0.055	0.081			0.247	2.2	0.19
ADI-15623 (antibody, V domains shown, IgG; also called Antibody Number 188) VH: EVQLLESGGGLVKPGGSLRLSCAASGFTIGGYNMFWVRQPPGKGLEWVSSITAGSSYLNYADSVKGRFIVSRDNAKNSLYLQMNSLRAEDTAVYFCARAPLLPAMMDLWGQGTTVTVSS VL: QSVVTQPPSVSGAPGQRVTISCTGSSSNIGAGYDVHWYQQLPGTAPKLLIYTNNNRPSGVPDRFSGSKSGTSASLAITGLQAEDEADYYCQSYDRSLNGYVFGTGTQLTVL	0.054	0.108	0.05	0.37		0.435	
ADI-15601 (antibody, V domains shown, IgG) VH: EVQLLETGGGLVKPGGSLRLSCEATGFTFSDFAMSWVRQAPGKGLEWVSLIKSSDYPYYADSVRGRFTISRDNSKNTLYLRMDNLRADDTAVYYCAKDADFWSGEAYNGGYNFDSWGQGTLVTVSS VL: EIVLTQSPATLSVSPGERATLSCRASQSIGTNLAWYQQKPGQAPRLLIFGASTRATGIPARFTGSGSGTEFTLTIGSLQSEDFAVYYCQQYNQWPPITFGGGTKVEIK	0.046	0.084			0.207	0.329	0.193

Source: patent US20220144922A1 (Adimab, published 2022)
